We go through seven molecules from patent publication US6051381, “Prokaryotic two-hybrid system” (dated 2000).

Test [1] has as its target Fos-LexA (E. coli; mouse) (UniProt P01101). As to the kind of experiment: E. coli two-hybrid, lacZ repression; reporter plasmid P3IHFLexAOpimpX.
Test [2] has as its target Jun-LexADNA (mouse; E. coli) (UniProt P05627). As to the kind of experiment: E. coli two-hybrid, lacZ repression; reporter construct P3.
The target is the same in test [3]. Nature of the test: E. coli two-hybrid, lacZ repression; reporter construct P3LexAOpH.
For test [4] the target is unchanged. As to the kind of experiment: E. coli two-hybrid, lacZ repression; reporter construct P3LexAOpX.
Test [5] shares this target. Nature of the test: E. coli two-hybrid, lacZ repression; reporter construct P3IHFLexAOpH.
For test [6] the target is unchanged. As to the kind of experiment: E. coli two-hybrid, lacZ repression; reporter construct P3IHFLexAOpX.
For test [7] the target is unchanged. As to the kind of experiment: E. coli two-hybrid, lacZ repression; reporter construct P3IHFLexAOpmH.
Test [8] concerns the target E6-LexA (E. coli; HPV) (UniProt P0A7C2). As to the kind of experiment: E. coli two-hybrid, lacZ repression; 0.5 mM IPTG, 50 ng/ml anhydrotetracycline; reporter P3IHFLexAimpX.
In the next test the target is T1, wild-type AraC (E. coli, UniProt P0A9E0).
T1 sequence: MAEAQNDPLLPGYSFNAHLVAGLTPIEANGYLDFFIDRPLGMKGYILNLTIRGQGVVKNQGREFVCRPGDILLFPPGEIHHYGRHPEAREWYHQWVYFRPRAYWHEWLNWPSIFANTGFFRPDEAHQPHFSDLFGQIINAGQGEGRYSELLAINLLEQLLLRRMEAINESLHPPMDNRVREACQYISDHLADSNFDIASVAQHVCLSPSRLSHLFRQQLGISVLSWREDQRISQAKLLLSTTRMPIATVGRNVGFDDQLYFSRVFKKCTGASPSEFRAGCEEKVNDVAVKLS
As to the kind of experiment: E. coli two-hybrid, lacZ repression, reporter P3IHFLexAOpimpX.

The target of test [9] is zip-LexADNA (E. coli). As to the kind of experiment: E. coli two-hybrid, lacZ repression; reporter construct P3.
In test [10] the target is zip-LexADNA (E. coli). Nature of the test: E. coli two-hybrid, lacZ repression; reporter construct P3LexAOpH.
The target of test [11] is zip-LexADNA (E. coli). Nature of the test: E. coli two-hybrid, lacZ repression; reporter construct P3LexAOpX.
For test [12], the target named is zip-LexADNA (E. coli). As to the kind of experiment: E. coli two-hybrid, lacZ repression; reporter construct P3IHFLexAOpH.
Test [13] addresses zip-LexADNA (E. coli). Nature of the test: E. coli two-hybrid, lacZ repression; reporter construct P3IHFLexAOpX.
The target of test [14] is zip-LexADNA (E. coli). Nature of the test: E. coli two-hybrid, lacZ repression; reporter construct P3IHFLexAOpmH.
In test [15] the target is E6-LexA (E. coli; HPV) (UniProt P0A7C2). As to the kind of experiment: E. coli two-hybrid, lacZ repression; non-interacting control pair; reporter P3IHFLexAimpX.

Consider Jun-AraC (from UniProt P05627), for which the repression ratio in test [1] is 11 fold.

For Fos-AraCDNA (from UniProt P01101), the repression ratio stood at 1.1 in test [2]; 2 in test [3]; 2.3 in test [4]; 1.9 in test [5]; 4.2 in [6].

With AraCDNA, the repression ratio in test [6] is 1.1; in test [7] it was 1.09.

Regarding E6AP-AraCDNA (from UniProt Q05086), the repression ratio with E6-LexA (E. coli; HPV) [8] was above 30 fold.

B1: Fos-LexA (other)
chain: RGKVEQLSPEEEEKRRIRRERNKMAAAKCRNRRRELTDTLQAETDQLEDEKSALQTEIANLLKEKEKLEFILAAHRPACKIPDDLGFPEEMSV
For the molecule B1, in the test with wild-type AraC, the binding result is “no binding”.

B2: AraCDNA (protein)
chain: ESLHPPMDNRVREACQYISDHLADSNFDIASVAQHVCLSPSRLSHLFRQQLGISVLSWREDQRISQAKLLLSTTRMPIATVGRNVGFDDQLYFSRVFKKCTGASPSEFRAGCEEKVNDVAVKLS
As for B2, the repression ratio with zip-LexADNA (E. coli) [9] was determined as 1.2; with zip-LexADNA (E. coli) [10] it was 1; with zip-LexADNA (E. coli) [11], 1.1; in the test with zip-LexADNA (E. coli) [12], 1.1; with zip-LexADNA (E. coli) [13], 1.2; with zip-LexADNA (E. coli) [14] it was 0.9. Further, in the test with E6-LexA (E. coli; HPV) [15], the repression ratio worked out at 1.5.

B3: wild-type AraC (protein)
chain: MAEAQNDPLLPGYSFNAHLVAGLTPIEANGYLDFFIDRPLGMKGYILNLTIRGQGVVKNQGREFVCRPGDILLFPPGEIHHYGRHPEAREWYHQWVYFRPRAYWHEWLNWPSIFANTGFFRPDEAHQPHFSDLFGQIINAGQGEGRYSELLAINLLEQLLLRRMEAINESLHPPMDNRVREACQYISDHLADSNFDIASVAQHVCLSPSRLSHLFRQQLGISVLSWREDQRISQAKLLLSTTRMPIATVGRNVGFDDQLYFSRVFKKCTGASPSEFRAGCEEKVNDVAVKLS
Consider B3, for which the repression ratio with zip-LexADNA (E. coli) [9] stood at 1.2; in the test with zip-LexADNA (E. coli) [10], 1.1; with zip-LexADNA (E. coli) [11], 1.2; with zip-LexADNA (E. coli) [12], 1; with zip-LexADNA (E. coli) [13], 1.2; with zip-LexADNA (E. coli) [14] it was 1.06.
